The text below walks through data of article PMC4926470.

A short description of data set [1]: secreted protein in media at 37 °C, Western. The note with it: glycan lost; control: wild type.
Data set [2] in a line: AHA pulse-chase, intracellular protein. The note with it: glycan lost; control: wild type.
Data set [3] in a line: Western densitometry, % in media, 48 h. The note with it: control: wild type.
Data set [4] can be described thus: Western blot of conditioned media. To be noted: control: untreated. Background: Immunoblotting shows a protein as a band on a membrane.
The nature of data set [5]: Western densitometry, % in media. To be noted: glycan gained; control: wild type.

B1: human Rspo1 (R-spondin 1): N137Q (protein)
parent chain: MRLGLCVVALVLSWTHLTISSRGIKGKRQRRISAEGSQACAKGCELCSEVNGCLKCSPKLFILLERNDIRQVGVCLPSCPPGYFDARNPDMNKCIKCKIEHCEACFSHNFCTKCKEGLYLHKGRCYPACPEGSSAANGTMECSSPAQCEMSEWSPWGPCSKKQQLCGFRRGSEERTRRVLHAPVGDHAACSDTKETRRCTVRRVPCPEGQKRRKGGQGRRENANRNLARKESKEAGAGSRRRKGQQQQQQQGTVGPLTSAGPA
Consider B1, for which the “degradation_or_half_life, half_life” value was “no change, ~48 vs >48” in data set [1] and “decreases, 0.6 vs 0.9” in data set [2]. The “expression_or_secretion, other: percent of total protein in media” value (shortened to “expression_or_secretion, other: percent”) in data set [3] (glycan lost) is “decreases, 32% vs 56%”.

B2: human Rspo1 (R-spondin 1): castanospermine (protein)
parent chain: B1 parent chain
In the case of B2, in data set [4] (glycan changed form), the expression_or_secretion entry was “decreases”.

B3: human Rspo1 (R-spondin 1): tunicamycin (protein)
parent chain: B1 parent chain
On to B3, for which, in data set [4] (glycan lost), the expression_or_secretion result is on record as “decreases”.

B4: human Rspo1 (R-spondin 1): Q163N/L165T (protein)
parent chain: B1 parent chain
Consider B4, for which the “expression_or_secretion, fold_change” value in data set [5] is recorded as “increases”.

B5: human Rspo3: N137Q (protein)
parent chain: MHLRLISWLFIILNFMEYIGSQNASRGRRQRRMHPNVSQGCQGGCATCSDYNGCLSCKPRLFFALERIGMKQIGVCLSSCPSGYYGTRYPDINKCTKCKADCDTCFNKNFCTKCKSGFYLHLGKCLDNCPEGLEANNHTMECVSIVHCEVSEWNPWSPCTKKGKTCGFKRGTETRVREIIQHPSAKGNLCPPTNETRKCTVQRKKCQKGERGKKGRERKRKKPNKGESKEAIPDSKSLESSKEIPEQRENKQQQKKRKVQDKQKSVSVSTVH
As to B5, in data set [1], the “degradation_or_half_life, half_life” value was “no change, >48 vs >48”. In addition, in data set [3] (glycan lost), the “expression_or_secretion, other: percent” value is on record as “decreases, 44% vs 67%”.

B6: human Rspo3: tunicamycin (protein)
parent chain: B5 parent chain
On to B6, for which, in data set [4] (glycan lost), the expression_or_secretion result was “decreases”.

B7: human Rspo2: N160Q (protein)
parent chain: MQFRLFSFALIILNCMDYSHCQGNRWRRSKRASYVSNPICKGCLSCSKDNGCSRCQQKLFFFLRREGMRQYGECLHSCPSGYYGHRAPDMNRCARCRIENCDSCFSKDFCTKCKVGFYLHRGRCFDECPDGFAPLEETMECVEGCEVGHWSEWGTCSRNNRTCGFKWGLETRTRQIVKKPVKDTILCPTIAESRRCKMTMRHCPGGKRTPKAKEKRNKKKKRKLIERAQEQHSVFLATDRANQ
Consider B7, for which the “degradation_or_half_life, half_life” value in data set [1] is recorded as “decreases, 12 vs 36”. In addition, in data set [3] (glycan lost), the “expression_or_secretion, other: percent” value is “decreases, 18% vs 34%”.

B8: human Rspo2: E136N (protein)
parent chain: B7 parent chain
As to B8, the “expression_or_secretion, other: percent” value in data set [3] (glycan gained) is “increases, two-fold vs 34%”.
